Results on one molecule are retold here after article PMC4104026.

This data set has as its target Hfq (His6-tagged) (UniProt P0A6X3 1-102). As to the kind of experiment: EMSA; affinity comparable to GcvB; tRNA competitor; Single-RNA EMSA: 10 mM Tris-HCl pH 7.4, 0.1 mM EDTA, 10 mM NH4Cl, 10 mM NaCl, 10 mM KCl, 1 mg/ml tRNA, 4% glycerol, RT 5 min; ~40 fmol RNA (legend); Methods say. As to conditions: protein: recombinant; tags: His6; chain copies: 6; label: 32P; 3' terminator hairpin.

Chain of Hfq (His6-tagged) (P0A6X3 whole entry): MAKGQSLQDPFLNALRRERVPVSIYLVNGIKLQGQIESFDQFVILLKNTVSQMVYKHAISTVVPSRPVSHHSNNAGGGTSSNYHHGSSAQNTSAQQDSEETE

B1: AgvB (EcOnc01) sRNA (structured_RNA)
RNA: CGAUAACACAACAAUAUCAGUAUCUCAUGCUAUUGCCCGAACCCAUUCGGGCAUUUUU
On to B1, for which the binding result is on record as “binds”.
